# Data reported in article PMC10600506, “A potent and broad‐spectrum neutralizing nanobody for SARS‐CoV‐2 viruses, including all major Omicron strains” (MedComm, 2023).
# Biological target: SARS-CoV-2 Omicron BA.1 Spike receptor-binding domain (SARS-CoV-2 Omicron BA.1, strain, biotin on the Avi tag (for phage screening and BLI); not biotinylated for crystallisation)
row,Binder,binding result
1,Nb8 (VHH) VHH: AVQLQASGGGFVQPGGSLRLSCAASGILGTNTWMGWFRQAPGKEREFVSAINYWTEPEYYADSVKGRFTISRDNSKNTVYLQMNSLRAEDTATYYCAQQNMDLNFDVFAWEYWGQGTQVTVSS,binds
2,Nb24 (VHH) VHH: AVQLQASGGGFVQPGGSLRLSCAASGHWPWTGFMGWFRQAPGKEREFVSAIVEYGWPTYYADSVKGRFTISRDNSKNTVYLQMNSLRAEDTATYYCAIAGLIAPEFEQMPVYWGQGTQVTVSS,binds
3,Nb26 (VHH) VHH: AVQLQASGGGFVQPGGSLRLSCAASGNYYPFTFMGWFRQAPGKEREFVSAIVTDYNKNYYADSVKGRFTISRDNSKNTVYLQMNSLRAEDTATYYCAYQDHSLIVESSGHMYWGQGTQVTVSS,binds
